In paper PMC2940758, “The N-Terminal Domain of the Arenavirus L Protein Is an RNA Endonuclease Essential in mRNA Transcription”:

Target: T1, NL1 (N-terminal endonuclease domain of L protein) (Lymphocytic choriomeningitis virus …, UniProt P14240 1-196)
T1 sequence: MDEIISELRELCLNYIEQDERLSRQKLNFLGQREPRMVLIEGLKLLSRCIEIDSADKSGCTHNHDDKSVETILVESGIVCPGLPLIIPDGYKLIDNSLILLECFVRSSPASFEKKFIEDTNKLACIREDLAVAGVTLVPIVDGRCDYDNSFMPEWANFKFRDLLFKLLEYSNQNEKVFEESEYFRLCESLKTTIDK
Test: EMSA
Details: protein: recombinant; tags: N-terminal His6; label: 5'-32P; unpaired

AUUUUGUUUUUAAUAUUUC (ssRNA) [19-mer unstructured RNA]
binding result: binds
